From paper PMC7048932, “Examining sterically demanding lysine analogs for histone lysine methyltransferase catalysis” (Scientific Reports, 2020) come the findings set out here.

Substrate in data set [1]: C[C@H](N)C(=O)N[C@@H](CCCNC(=N)N)C(=O)N[C@H](C(=O)N[C@@H](CCCCN)C(=O)N[C@@H](CCC(N)=O)C(=O)N[C@H](C(=O)N[C@@H](C)C(=O)N[C@@H](CCCNC(=N)N)C(=O)N[C@@H](CCC1CC1N)C(=O)N[C@@H](CO)C(=O)N[C@H](C(=O)NCC(=O)NCC(=O)N[C@@H](CCCCN)C(=O)N[C@@H](C)C(=O)O)[C@@H](C)O)[C@@H](C)O)[C@@H](C)O
The experiment in a line: Enzyme kinetics of G9a-catalyzed methylation (MALDI-TOF MS). It counts as biochemical, human. The following applies: other: G9a-catalyzed methylation, MALDI-TOF MS assay; pH 8.0; 37.0 °C.

For a further data set, the target named is T1, SETD7 (human) (UniProt Q8WTS6).
T1 sequence: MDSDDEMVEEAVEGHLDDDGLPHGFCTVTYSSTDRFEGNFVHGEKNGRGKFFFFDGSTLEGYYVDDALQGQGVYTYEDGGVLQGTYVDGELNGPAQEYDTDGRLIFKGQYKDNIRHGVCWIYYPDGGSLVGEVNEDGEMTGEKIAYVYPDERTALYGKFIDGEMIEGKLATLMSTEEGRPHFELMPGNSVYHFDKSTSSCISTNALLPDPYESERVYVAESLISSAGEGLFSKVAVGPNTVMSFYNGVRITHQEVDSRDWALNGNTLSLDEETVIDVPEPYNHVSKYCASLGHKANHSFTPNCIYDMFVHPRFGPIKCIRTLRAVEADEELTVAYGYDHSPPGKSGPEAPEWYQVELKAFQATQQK

Another data set addresses G9a (human) (UniProt Q96KQ7).
Another data set concerns the target GLP (human) (UniProt Q9H9B1).

Where only a bound is given, the exact number is not on record here.

GLP (human), sequence (Q9H9B1 whole entry): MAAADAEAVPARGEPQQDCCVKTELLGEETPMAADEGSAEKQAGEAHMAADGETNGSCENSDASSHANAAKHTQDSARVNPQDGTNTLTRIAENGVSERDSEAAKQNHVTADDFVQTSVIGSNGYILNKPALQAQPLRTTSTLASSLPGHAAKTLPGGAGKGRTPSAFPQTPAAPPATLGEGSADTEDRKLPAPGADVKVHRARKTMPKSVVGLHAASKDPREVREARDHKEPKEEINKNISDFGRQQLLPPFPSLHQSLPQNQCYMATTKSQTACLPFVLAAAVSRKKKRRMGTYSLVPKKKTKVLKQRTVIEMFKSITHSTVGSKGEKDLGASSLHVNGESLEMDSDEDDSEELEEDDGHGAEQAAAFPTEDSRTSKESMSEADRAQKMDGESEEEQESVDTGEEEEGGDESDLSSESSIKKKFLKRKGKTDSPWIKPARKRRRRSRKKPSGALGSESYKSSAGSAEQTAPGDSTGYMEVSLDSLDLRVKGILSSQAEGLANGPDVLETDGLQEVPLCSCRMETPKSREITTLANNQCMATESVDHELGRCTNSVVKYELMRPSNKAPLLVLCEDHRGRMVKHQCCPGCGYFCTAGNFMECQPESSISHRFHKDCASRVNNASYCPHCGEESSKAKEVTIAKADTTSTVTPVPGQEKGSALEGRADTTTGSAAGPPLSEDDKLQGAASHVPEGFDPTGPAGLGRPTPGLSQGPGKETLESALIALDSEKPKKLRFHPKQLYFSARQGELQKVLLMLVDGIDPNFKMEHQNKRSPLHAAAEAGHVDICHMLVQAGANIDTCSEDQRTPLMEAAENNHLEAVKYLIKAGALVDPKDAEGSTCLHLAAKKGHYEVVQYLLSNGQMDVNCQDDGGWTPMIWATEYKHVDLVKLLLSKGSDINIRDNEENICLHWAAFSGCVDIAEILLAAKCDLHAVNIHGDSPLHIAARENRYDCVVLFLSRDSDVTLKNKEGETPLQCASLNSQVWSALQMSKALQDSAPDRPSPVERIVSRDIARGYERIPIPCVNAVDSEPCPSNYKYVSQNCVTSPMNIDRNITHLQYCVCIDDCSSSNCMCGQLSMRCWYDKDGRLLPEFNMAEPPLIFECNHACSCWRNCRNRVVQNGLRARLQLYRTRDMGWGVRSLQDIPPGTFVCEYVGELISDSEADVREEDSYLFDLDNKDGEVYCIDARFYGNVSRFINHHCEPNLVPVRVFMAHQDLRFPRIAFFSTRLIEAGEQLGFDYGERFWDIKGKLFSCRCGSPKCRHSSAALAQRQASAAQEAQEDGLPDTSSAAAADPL

B1: G9a (Homo sapiens) (protein)
chain: MAAAAGAAAAAAAEGEAPAEMGALLLEKETRGATERVHGSLGDTPRSEETLPKATPDSLEPAGPSSPASVTVTVGDEGADTPVGATPLIGDESENLEGDGDLRGGRILLGHATKSFPSSPSKGGSCPSRAKMSMTGAGKSPPSVQSLAMRLLSMPGAQGAAAAGSEPPPATTSPEGQPKVHRARKTMSKPGNGQPPVPEKRPPEIQHFRMSDDVHSLGKVTSDLAKRRKLNSGGGLSEELGSARRSGEVTLTKGDPGSLEEWETVVGDDFSLYYDSYSVDERVDSDSKSEVEALTEQLSEEEEEEEEEEEEEEEEEEEEEEEEDEESGNQSDRSGSSGRRKAKKKWRKDSPWVKPSRKRRKREPPRAKEPRGVNGVGSSGPSEYMEVPLGSLELPSEGTLSPNHAGVSNDTSSLETERGFEELPLCSCRMEAPKIDRISERAGHKCMATESVDGELSGCNAAILKRETMRPSSRVALMVLCETHRARMVKHHCCPGCGYFCTAGTFLECHPDFRVAHRFHKACVSQLNGMVFCPHCGEDASEAQEVTIPRGDGVTPPAGTAAPAPPPLSQDVPGRADTSQPSARMRGHGEPRRPPCDPLADTIDSSGPSLTLPNGGCLSAVGLPLGPGREALEKALVIQESERRKKLRFHPRQLYLSVKQGELQKVILMLLDNLDPNFQSDQQSKRTPLHAAAQKGSVEICHVLLQAGANINAVDKQQRTPLMEAVVNNHLEVARYMVQRGGCVYSKEEDGSTCLHHAAKIGNLEMVSLLLSTGQVDVNAQDSGGWTPIIWAAEHKHIEVIRMLLTRGADVTLTDNEENICLHWASFTGSAAIAEVLLNARCDLHAVNYHGDTPLHIAARESYHDCVLLFLSRGANPELRNKEGDTAWDLTPERSDVWFALQLNRKLRLGVGNRAIRTEKIICRDVARGYENVPIPCVNGVDGEPCPEDYKYISENCETSTMNIDRNITHLQHCTCVDDCSSSNCLCGQLSIRCWYDKDGRLLQEFNKIEPPLIFECNQACSCWRNCKNRVVQSGIKVRLQLYRTAKMGWGVRALQTIPQGTFICEYVGELISDAEADVREDDSYLFDLDNKDGEVYCIDARYYGNISRFINHLCDPNIIPVRVFMLHQDLRFPRIAFFSSRDIRTGEELGFDYGDRFWDIKSKYFTCQCGSEKCKHSAEAIALEQSRLARLDPHPELLPELGSLPPVNT
notes: His6 (N); made in house; host or cells: E. coli BL21 (DE3)pLysS-rosetta
For B1, in data set [1], the Km is 22.6 ± 5.0 µM, the kcat is 0.0463 ± 0.0005 s⁻¹ and the kcat/Km was found to be 2070 M⁻¹ s⁻¹.
In the case of ARTYQTARKSTGGKA [H3K4 analog histone peptide with tyrosine (Y) at position 4], in the data set with SETD7 (human), the IC50 of inhibition of SETD7 (100 nM) methylation of a 21-mer H3 peptide (residues 1–21, 5 µM) with SAM (20 µM), MALDI-TOF MS is > 100 µM.
ARTKQTARYSTGGKA [H3Y9 histone peptide]: in the data set with G9a (human), the IC50 of inhibition of G9a (100 nM) methylation of a 21-mer H3 peptide (residues 1–21, 5 µM) with SAM (20 µM), MALDI-TOF MS is > 100 µM. Moreover, the IC50 of inhibition of GLP (100 nM) methylation of a 21-mer H3 peptide (residues 1–21, 5 µM) with SAM (20 µM), MALDI-TOF MS in the data set with GLP (human) was > 100 µM.

As a reminder, the Km is the concentration of substrate that gives half-maximal velocity. As usually defined, the kcat is the maximal rate divided by the concentration of active sites. In general, kcat/Km refers to the second-order rate constant that governs catalysis at low substrate concentration.
